Substitutions are numbered along the chain they refer to. Numbers in names are those of the source. Where two headings read alike, the source gives them in different places.
T1: Spindly_(1–142) (human, UniProt Q96EA4-1 1-142)
T1 chain: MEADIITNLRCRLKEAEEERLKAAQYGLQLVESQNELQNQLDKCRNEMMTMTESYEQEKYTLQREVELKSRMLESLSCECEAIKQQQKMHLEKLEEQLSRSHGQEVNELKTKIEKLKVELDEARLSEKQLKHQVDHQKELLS

T2: BICD2_(1–98) (human, UniProt Q8TD16-1 1-98)
T2 chain: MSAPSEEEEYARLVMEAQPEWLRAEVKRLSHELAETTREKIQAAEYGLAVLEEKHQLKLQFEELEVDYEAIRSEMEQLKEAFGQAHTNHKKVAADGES

B1: Hook3_(1–160)A138D (domain or fragment)
chain: MFSVESLERAELCESLLTWIQTFNVDAPCQTVEDLTNGVVMAQVLQKIDPAYFDENWLNRIKTEVGDNWRLKISNLKKILKGILDYNHEILGQQINDFTLPDVNLIGEHSDAAELGRMLQLILGCAVNCEQKQEYIQDIMMMEESVQHVVMTAIQELMSK
B2: Hook3_(1–160) (domain or fragment)
chain: B1 chain with D138A
B3: LIC1_(433–458) (peptide)
chain: NMKAGATSEGVLANFFNSLLSKKTGS

Columns and labels:
MBP-LIC1FL [1] = target: MBP-LIC1FL (human); test: ITC
Sequence of MBP-LIC1FL (human) (chain, as listed by the source): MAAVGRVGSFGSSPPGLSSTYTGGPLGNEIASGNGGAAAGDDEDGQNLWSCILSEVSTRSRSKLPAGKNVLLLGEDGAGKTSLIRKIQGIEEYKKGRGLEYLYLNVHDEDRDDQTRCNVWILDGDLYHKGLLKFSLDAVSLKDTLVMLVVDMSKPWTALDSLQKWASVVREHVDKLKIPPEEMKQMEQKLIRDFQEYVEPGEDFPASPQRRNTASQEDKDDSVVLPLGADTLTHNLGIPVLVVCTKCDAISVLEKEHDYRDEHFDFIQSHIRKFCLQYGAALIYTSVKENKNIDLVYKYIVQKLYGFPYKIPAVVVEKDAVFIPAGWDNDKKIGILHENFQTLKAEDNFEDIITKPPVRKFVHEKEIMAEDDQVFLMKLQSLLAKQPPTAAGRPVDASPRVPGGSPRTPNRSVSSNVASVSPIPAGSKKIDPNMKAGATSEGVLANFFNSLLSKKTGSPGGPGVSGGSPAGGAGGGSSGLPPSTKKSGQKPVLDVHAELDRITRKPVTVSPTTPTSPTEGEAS

MBP-LIC1FL [2] = target: MBP-LIC1FL (human); test: ITC; remark: listed apart in the source
Spindly_(1–142) [3] = target: T1, Spindly_(1–142); test: ITC; second site (KD2)
Spindly_(1–142) [4] = target: T1, Spindly_(1–142); test: ITC; first site (KD1)
Hook3_(1–160) = target: B2; test: ITC
BICD2_(1–98) [5] = target: T2, BICD2_(1–98); test: ITC; first site (KD1), 30°C
BICD2_(1–98) [6] = target: T2, BICD2_(1–98); test: ITC; second site (KD2), 30°C

B1
Kd (MBP-LIC1FL [1]): 8.1 µM

B2
Kd (MBP-LIC1FL [2]): 12.3 µM

B3
Kd (Spindly_(1–142) [3]): 7.6 µM | Kd (Spindly_(1–142) [4]): 3.6 µM | Kd (Hook3_(1–160)): 6.3 µM | Kd (BICD2_(1–98) [5]): 1.5 µM | Kd (BICD2_(1–98) [6]): 7.5 µM
